Reference: patent US20050142135A1, “Agents and methods for modulating interactions between gonadotropin hormones and receptors” (University of Kentucky Research Foundation, priority 2003, published 2005)
pKd: −log10 of the molar value.

How the values were obtained:
[1] = molecular target: human FSH (human) (UniProt P01215); test: photoaffinity labeling, SDS-PAGE autoradiograph
[2] = molecular target: LHR I^577A mutant (human) (UniProt P22888); test: 125I-hCG displacement / Scatchard; conditions: ligand
[3] = molecular target: LHR K^573A mutant (human) (UniProt P22888); test: 125I-hCG displacement / Scatchard; conditions: ligand
[4] = molecular target: LHR L^576A mutant (human) (UniProt P22888); test: 125I-hCG displacement / Scatchard; conditions: ligand
[5] = molecular target: LHR N^581A mutant (human) (UniProt P22888); test: 125I-hCG displacement / Scatchard; conditions: ligand
[6] = molecular target: LHR P^575A mutant (human) (UniProt P22888); test: 125I-hCG displacement / Scatchard; conditions: ligand
[7] = molecular target: LHR T^578A mutant (human) (UniProt P22888); test: 125I-hCG displacement / Scatchard; conditions: ligand
[8] = molecular target: LHR T^580A mutant (human) (UniProt P22888); test: 125I-hCG displacement / Scatchard; conditions: ligand
[9] = molecular target: LHR V^579A mutant (human) (UniProt P22888); test: 125I-hCG displacement / Scatchard; conditions: ligand
[10] = molecular target: LHR^K583A (human) (UniProt P22888); test: 125I-hCG displacement / Scatchard; conditions: ligand
[11] = molecular target: LHR^S582A (human) (UniProt P22888); test: 125I-hCG displacement / Scatchard; conditions: ligand
[12] = molecular target: LHR^V574A (human) (UniProt P22888); test: 125I-hCG displacement / Scatchard; conditions: ligand
[13] = molecular target: LHR^S582A (human) (UniProt P22888); test: cell-based or functional assay
[14] = molecular target: LHR^V574A (human) (UniProt P22888); test: cell-based or functional assay
[15] = molecular target: LHR^K583A (human) (UniProt P22888); test: 125I-hCG competition binding on HEK293 cells, Scatchard

Chain of LHR^V574A (human) (P22888 27-699, stated change not applied): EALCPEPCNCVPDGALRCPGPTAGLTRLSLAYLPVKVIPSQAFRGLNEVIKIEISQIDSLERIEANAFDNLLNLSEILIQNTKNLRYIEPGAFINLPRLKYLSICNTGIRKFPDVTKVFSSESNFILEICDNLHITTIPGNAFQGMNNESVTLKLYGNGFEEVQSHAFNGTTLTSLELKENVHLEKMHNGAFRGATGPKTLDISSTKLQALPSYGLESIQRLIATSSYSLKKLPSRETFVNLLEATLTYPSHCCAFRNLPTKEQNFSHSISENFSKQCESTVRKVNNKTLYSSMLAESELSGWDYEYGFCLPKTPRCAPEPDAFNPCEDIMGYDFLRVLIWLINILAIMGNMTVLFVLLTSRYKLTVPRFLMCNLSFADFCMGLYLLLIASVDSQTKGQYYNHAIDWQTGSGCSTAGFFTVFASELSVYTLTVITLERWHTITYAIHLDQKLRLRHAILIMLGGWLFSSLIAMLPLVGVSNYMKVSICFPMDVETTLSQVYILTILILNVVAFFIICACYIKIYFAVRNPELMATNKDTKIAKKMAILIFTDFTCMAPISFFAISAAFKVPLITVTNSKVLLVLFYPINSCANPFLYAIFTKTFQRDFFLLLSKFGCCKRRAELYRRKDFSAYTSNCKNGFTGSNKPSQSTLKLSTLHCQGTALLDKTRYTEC
Chain of LHR^S582A (human) (P22888 27-699, stated change not applied): as above
Chain of LHR^K583A (human) (P22888 27-699, stated change not applied): as above
Chain of LHR T^580A mutant (human) (P22888 other isoform, or with tags, fused parts or gaps mutant): as the sequence (P22888 27-699, stated change not applied) above, with T576A counted along it
Chain of LHR L^576A mutant (human) (P22888 27-699, change not shown): as the sequence (P22888 27-699, stated change not applied) above
Chain of LHR N^581A mutant (human) (P22888 27-699, change not shown): as the sequence (P22888 27-699, stated change not applied) above
Chain of LHR I^577A mutant (human) (P22888 27-699, change not shown): as the sequence (P22888 27-699, stated change not applied) above
Chain of LHR V^579A mutant (human) (P22888 27-699, stated change not applied): as above
Chain of LHR P^575A mutant (human) (P22888 27-699, change not shown): as the sequence (P22888 27-699, stated change not applied) above
Chain of LHR K^573A mutant (human) (P22888 27-699, change not shown): as the sequence (P22888 27-699, stated change not applied) above
Chain of LHR T^578A mutant (human) (P22888 27-699, change not shown): as the sequence (P22888 27-699, stated change not applied) above

## ^125I-FSHR^9-40F13Bpa (peptide)
[1]
  percent of FSH labeled: > 50%

## hCG (from UniProt P01215 25-116; P0DN86 21-165)
[2]
  pKd: 9.13
[3]
  pKd: 9.46
[4]
  pKd: 9.37
[5]
  pKd: 9.46
[6]
  pKd: 9.56
[7]
  pKd: 9.52
[8]
  pKd: 9.21
[9]
  pKd: 9.01
[10]
  pKd: 9.71
[11]
  pKd: 9.03
[12]
  pKd: 9.62

## hCG (from UniProt P01215 25-116; P0DN86 21-165) (ligand)
[13]
  IP1 (cpm): 15100 cpm
  IP1 maximum level, mutant/wild type: 1.09
  IP2 (cpm): 900 cpm
  IP2 maximum level, mutant/wild type: 1.29
  IP3 (cpm): 386 cpm
  IP3 maximum level, mutant/wild type: 1.38
  IPt (cpm): 16200 cpm
  IPt maximum level, mutant/wild type: 1.11
[14]
  IP1 (cpm): 2110 cpm
  IP1 maximum level, mutant/wild type: 0.15
  IP2 (cpm): 180 cpm
  IP2 maximum level, mutant/wild type: 0.25
  IP3 (cpm): 80 cpm
  IP3 maximum level, mutant/wild type: 0.39
  IPt (cpm): 2230 cpm
  IPt maximum level, mutant/wild type: 0.15
[15]
  fold improvement of binding affinity over wild type: 2 fold
